Patent US20110020361A1

Molecular target: cell surface-associated mesothelin (UniProt Q13421)
Assay: flow cytometry titration of IgG1 m912 on H9 cells, medium fluorescent units

With IgG1 m912 (antibody) the 50% binding was 5 to 10 nM.
